{"source": "paper PMC7954794", "about": "(2021)", "parents": {"B1": {"name": "S. cerevisiae Abp1 (full length; SH3 domain 535-592 mutated) / Hua2 (parent complex)", "chain 1": "MALEPIDYTTHSREIDAEYLKIVRGSDPDTTWLIISPNAKKEYEPESTGSSFHDFLQLFDETKVQYGLARVSPPGSDVEKIIIIGWCPDSAPLKTRASFAANFAAVANNLFKGYHVQVTARDEDDLDENELLMKISNAAGARYSIQTSSKQQGKASTPPVKKSFTPSKSPAPVSKKEPVKTPSPAPAAKISSRVNDNNDDDDWNEPELKERDFDQAPLKPNQSSYKPIGKIDLQKVIAEEKAKEDPRLVQKPTAAGSKIDPSSDIANLKNESKLKRDSEFNSFLGTTKPPSMTESSLKNDDDKVIKGFRNEKSPAQLWAERKAKQNSGNAETKAEAPKPEVPEDEPEGEPDVKDLKSKFEGLAASEKEEEEMENKFAPPPKKSEPTIISPKPFSKPQEPVKAEEAEQPKTDYKKIGNPLPGMHIEADNEEEPEENDDDWDDDEDEAAQPPLPSRNVASGAPVQKEEPEQEEIAPSLPSRNSIPAPKQEEAPEQAPEEEIEEEAEEAAPQLPSRSSAAPPPPPRRATPEKKPKENPWATAEYDYDAAEDNELTFVENDKIINIEFVDDDWWLGELEKDGSKGLFPSNYVSLGN", "chain 2": "MQQTKFGKMYLDHDSVVEYSEDEIVEADRITLGYKKRLSMIENQMRHLLEDFSLDVQQIEPILADLQKYYDAFLQLLQKRNKSLQCKRSTHQPVPSPMNSQTSTNAKVNLSGKLMKFQLNSVQKFDEENILRILQNKIEFEHYFQIDKGKKQKVLLLAVYQCLNGPTRLHKVLNIEGIIHNNSIRTILGKQVSSSKWTVFLYDVKLVLLAHRQDVPNLETSKMIVRYGDLFPCALYFKDHTAY"}}}
{"variants_of": "B1", "assay": "DHFR protein-fragment complementation in yeast (Abp1-DHFR F[1,2] x partner-DHFR F[3]), deep mutational scanning, second methotrexate selection vs reference; S. cerevisiae, DHFR-PCA selection in liquid with methotrexate at 30 C, two 72 h selections (the score uses the second); reference = the pre-selection culture"}
{"variant": "chain 1 D542G", "screen value": "0.784 DMS score: mean over two replicates of log2(f_test/f_ref + 0.5)/ln 2, minus the synonymous-codon median (not a log2 …"}
{"variant": "chain 1 E540C", "screen value": "-1.63 DMS score: mean over two replicates of log2(f_test/f_ref + 0.5)/ln 2, minus the synonymous-codon median (not a log2 …"}
{"variant": "chain 1 E540L", "screen value": "-2.53 DMS score: mean over two replicates of log2(f_test/f_ref + 0.5)/ln 2, minus the synonymous-codon median (not a log2 …"}
{"variant": "chain 1 E540V", "screen value": "-2.31 DMS score: mean over two replicates of log2(f_test/f_ref + 0.5)/ln 2, minus the synonymous-codon median (not a log2 …"}
{"variant": "chain 1 S589C", "screen value": "0.299 DMS score: mean over two replicates of log2(f_test/f_ref + 0.5)/ln 2, minus the synonymous-codon median (not a log2 …"}
{"variant": "chain 1 T538M", "screen value": "0.283 DMS score: mean over two replicates of log2(f_test/f_ref + 0.5)/ln 2, minus the synonymous-codon median (not a log2 …"}
{"variant": "chain 1 T538S", "screen value": "-0.596 DMS score: mean over two replicates of log2(f_test/f_ref + 0.5)/ln 2, minus the synonymous-codon median (not a log2 …"}
{"variant": "chain 1 T538Q", "screen value": "-0.259 DMS score: mean over two replicates of log2(f_test/f_ref + 0.5)/ln 2, minus the synonymous-codon median (not a log2 …"}
{"variant": "chain 1 Y543F", "screen value": "0.735 DMS score: mean over two replicates of log2(f_test/f_ref + 0.5)/ln 2, minus the synonymous-codon median (not a log2 …"}
{"variant": "chain 1 D544G", "screen value": "-0.178 DMS score: mean over two replicates of log2(f_test/f_ref + 0.5)/ln 2, minus the synonymous-codon median (not a log2 …"}
{"variant": "chain 1 D544L", "screen value": "0.763 DMS score: mean over two replicates of log2(f_test/f_ref + 0.5)/ln 2, minus the synonymous-codon median (not a log2 …"}
{"variant": "chain 1 D544A", "screen value": "0.497 DMS score: mean over two replicates of log2(f_test/f_ref + 0.5)/ln 2, minus the synonymous-codon median (not a log2 …"}
{"variant": "chain 1 L571C", "screen value": "-0.177 DMS score: mean over two replicates of log2(f_test/f_ref + 0.5)/ln 2, minus the synonymous-codon median (not a log2 …"}
{"variant": "chain 1 L571D", "screen value": "-0.576 DMS score: mean over two replicates of log2(f_test/f_ref + 0.5)/ln 2, minus the synonymous-codon median (not a log2 …"}
{"variant": "chain 1 L571R", "screen value": "-1.06 DMS score: mean over two replicates of log2(f_test/f_ref + 0.5)/ln 2, minus the synonymous-codon median (not a log2 …"}
{"variant": "chain 1 L571Q", "screen value": "-0.179 DMS score: mean over two replicates of log2(f_test/f_ref + 0.5)/ln 2, minus the synonymous-codon median (not a log2 …"}
{"variant": "chain 1 L571W", "screen value": "-0.19 DMS score: mean over two replicates of log2(f_test/f_ref + 0.5)/ln 2, minus the synonymous-codon median (not a log2 …"}
{"variant": "chain 1 E573S", "screen value": "-0.47 DMS score: mean over two replicates of log2(f_test/f_ref + 0.5)/ln 2, minus the synonymous-codon median (not a log2 …"}
{"variant": "chain 1 E573C", "screen value": "0.625 DMS score: mean over two replicates of log2(f_test/f_ref + 0.5)/ln 2, minus the synonymous-codon median (not a log2 …"}
{"variant": "chain 1 D567V", "screen value": "-2.81 DMS score: mean over two replicates of log2(f_test/f_ref + 0.5)/ln 2, minus the synonymous-codon median (not a log2 …"}
{"variant": "chain 1 D567E", "screen value": "-1.62 DMS score: mean over two replicates of log2(f_test/f_ref + 0.5)/ln 2, minus the synonymous-codon median (not a log2 …"}
{"variant": "chain 1 D567N", "screen value": "-1.8 DMS score: mean over two replicates of log2(f_test/f_ref + 0.5)/ln 2, minus the synonymous-codon median (not a log2 …"}
{"variant": "chain 1 D567G", "screen value": "-2.86 DMS score: mean over two replicates of log2(f_test/f_ref + 0.5)/ln 2, minus the synonymous-codon median (not a log2 …"}
{"variant": "chain 1 Y587V", "screen value": "-1.17 DMS score: mean over two replicates of log2(f_test/f_ref + 0.5)/ln 2, minus the synonymous-codon median (not a log2 …"}
{"variant": "chain 1 Y587R", "screen value": "-2.81 DMS score: mean over two replicates of log2(f_test/f_ref + 0.5)/ln 2, minus the synonymous-codon median (not a log2 …"}
{"variant": "chain 1 K558T", "screen value": "0.186 DMS score: mean over two replicates of log2(f_test/f_ref + 0.5)/ln 2, minus the synonymous-codon median (not a log2 …"}
{"variant": "chain 1 K558S", "screen value": "-0.847 DMS score: mean over two replicates of log2(f_test/f_ref + 0.5)/ln 2, minus the synonymous-codon median (not a log2 …"}
{"variant": "chain 1 V554I", "screen value": "-0.0296 DMS score: mean over two replicates of log2(f_test/f_ref + 0.5)/ln 2, minus the synonymous-codon median (not a log2 …"}
{"variant": "chain 1 V554S", "screen value": "0.912 DMS score: mean over two replicates of log2(f_test/f_ref + 0.5)/ln 2, minus the synonymous-codon median (not a log2 …"}
{"variant": "chain 1 V554T", "screen value": "0.502 DMS score: mean over two replicates of log2(f_test/f_ref + 0.5)/ln 2, minus the synonymous-codon median (not a log2 …"}
{"variant": "chain 1 V554R", "screen value": "0.925 DMS score: mean over two replicates of log2(f_test/f_ref + 0.5)/ln 2, minus the synonymous-codon median (not a log2 …"}
{"variant": "chain 1 V554L", "screen value": "-0.408 DMS score: mean over two replicates of log2(f_test/f_ref + 0.5)/ln 2, minus the synonymous-codon median (not a log2 …"}
{"variant": "chain 1 V554Y", "screen value": "0.89 DMS score: mean over two replicates of log2(f_test/f_ref + 0.5)/ln 2, minus the synonymous-codon median (not a log2 …"}
{"variant": "chain 1 V554A", "screen value": "0.779 DMS score: mean over two replicates of log2(f_test/f_ref + 0.5)/ln 2, minus the synonymous-codon median (not a log2 …"}
{"variant": "chain 1 V554K", "screen value": "1.28 DMS score: mean over two replicates of log2(f_test/f_ref + 0.5)/ln 2, minus the synonymous-codon median (not a log2 …"}
{"variant": "chain 1 E547L", "screen value": "-0.584 DMS score: mean over two replicates of log2(f_test/f_ref + 0.5)/ln 2, minus the synonymous-codon median (not a log2 …"}
{"variant": "chain 1 E547T", "screen value": "-2.64 DMS score: mean over two replicates of log2(f_test/f_ref + 0.5)/ln 2, minus the synonymous-codon median (not a log2 …"}
